# Measurements as given in paper PMC4900678, “The DEAD-box Protein Rok1 Orchestrates 40S and 60S Ribosome Assembly by Promoting the Release of Rrp5 from Pre-40S Ribosomes to Allow for 60S Maturation” (PLoS Biology, 2016).
# B1: Rok1 (recombinant) (enzyme, S. cerevisiae, UniProt P45818 1-564, looked up)
# chain: MDIFRVLTRGASVKKESGPKAKAADYSVINGNDENHKEDNNESQIVKELDFFRNKRIISKVEDDREKTTENDSPNKEEKSGNDDGLIKPVITNTVEASALRKSYKGNVSGIDIPLPIGSFEDLISRFSFDKRLLNNLIENGFTEPTPIQCECIPVALNNRDVLACGPTGSGKTLAFLIPLVQQIIDDKQTAGLKGLIISPTKELANQIFIECFKLSYKIFLEKKRPLQVALLSKSLGAKLKNKVVSDKKYDIIISTPLRLIDVVKNEALDLSKVKHLIFDEADKLFDKTFVEQSDDILSACREPSLRKAMFSATIPSNVEEIAQSIMMDPVRVIIGHKEAANTNIEQKLIFCGNEEGKLIAIRQLVQEGEFKPPIIIFLESITRAKALYHELMYDRINVDVIHAERTALQRDRIIERFKTGELWCLICTDVLARGIDFKGVNLVINYDVPGSSQAYVHRIGRTGRGGRSGKAITFYTKQDSVAIKPIINVMKQSGCEVSEWMDKMAKMTRKEKESIKNGKAHKERKQITTVPKMDKAKRRRQQEMIAASKRRKNEELSKKHFSK
# notes: Rok1, DEAD-box protein, 64 kDa; Named Rok1 without a tag, in contrast to MBP-Rok1 and GST-Rok1; also called recombinant Rok1
# B2: maltose binding protein (MBP)-tagged Rok1 (enzyme, S. cerevisiae, UniProt P45818 1-564, looked up)
# chain: B1 chain
# notes: Rok1, DEAD-box protein; also called MBP-Rok1; source: E. coli Rosetta2 (DE3), recombinant; purification not described here
# B3: glutathione S-transferase (GST)-tagged Rok1 (enzyme, S. cerevisiae, UniProt P45818 1-564, looked up)
# chain: B1 chain
# notes: Rok1, DEAD-box protein; also called GST-Rok1; source: E. coli Rosetta2 (DE3), recombinant; purification not described here
# B4: Has1 (recombinant) (enzyme)
# chain: not shown
# notes: Has1, DEAD-box protein, HAS1 gene cloned from yeast into pSV272 as a TEV-cleavable His6-MBP fusion; also called recombinant Has1; source: E. coli Rosetta2 (DE3), purified (Ni-NTA, MonoS, Superdex S-200)
# How the values were obtained:
# Settings in all cases: both partners purified
# [1] = target: T1, full-length Rrp5 (recombinant) (S. cerevisiae, UniProt Q05022 1-1729); assay: negative-stain single-particle EM reconstruction; 100 pmol Rok1 incubated with Rrp5 in 300 mM NaCl, 10 mM MgCl2, 30 mM MES pH 6.7, 20°C, 2 h; GraFix glycerol/glutaraldehyde gradient; uranyl formate stain
# T1 construct: Rrp5, S. cerevisiae, 193 kDa, 12 S1 domains followed by seven TPR repeats; The His6 tag is named only for the Has1 pull-down (His6-Rrp5, His-Rrp5); I take both to be the one Rrp5-FL preparation; also called Rrp5-FL; Rrp5_FL
# [2] = target: T1, full-length Rrp5 (recombinant); assay: pull-down; 10 uM FL Rrp5 or Rrp5_TPR2+7 with 15 uM MBP-Rok1 (or MBP) on amylose resin; 150 mM NaCl, 30 mM HEPES/NaOH pH 7.5, 5% glycerol; 4°C; eluted with 20 mM maltose
# [3] = target: T1, full-length Rrp5 (recombinant); assay: pull-down; 5 uM FL Rrp5 or Rrp5 fragments with 3 uM GST-Rok1 (or GST) on GSH sepharose; 150 mM NaCl, 30 mM HEPES/NaOH pH 7.5, 5% glycerol; 4°C; eluted with 20 mM reduced glutathione
# [4] = target: T1, full-length Rrp5 (recombinant); assay: pull-down; 5 uM Has1 with 3 uM His-Rrp5 on Ni-NTA resin, pull-down buffer, 4°C; eluted with 300 mM imidazole
# T1 sequence (Q05022 whole entry, the tested form may be a part): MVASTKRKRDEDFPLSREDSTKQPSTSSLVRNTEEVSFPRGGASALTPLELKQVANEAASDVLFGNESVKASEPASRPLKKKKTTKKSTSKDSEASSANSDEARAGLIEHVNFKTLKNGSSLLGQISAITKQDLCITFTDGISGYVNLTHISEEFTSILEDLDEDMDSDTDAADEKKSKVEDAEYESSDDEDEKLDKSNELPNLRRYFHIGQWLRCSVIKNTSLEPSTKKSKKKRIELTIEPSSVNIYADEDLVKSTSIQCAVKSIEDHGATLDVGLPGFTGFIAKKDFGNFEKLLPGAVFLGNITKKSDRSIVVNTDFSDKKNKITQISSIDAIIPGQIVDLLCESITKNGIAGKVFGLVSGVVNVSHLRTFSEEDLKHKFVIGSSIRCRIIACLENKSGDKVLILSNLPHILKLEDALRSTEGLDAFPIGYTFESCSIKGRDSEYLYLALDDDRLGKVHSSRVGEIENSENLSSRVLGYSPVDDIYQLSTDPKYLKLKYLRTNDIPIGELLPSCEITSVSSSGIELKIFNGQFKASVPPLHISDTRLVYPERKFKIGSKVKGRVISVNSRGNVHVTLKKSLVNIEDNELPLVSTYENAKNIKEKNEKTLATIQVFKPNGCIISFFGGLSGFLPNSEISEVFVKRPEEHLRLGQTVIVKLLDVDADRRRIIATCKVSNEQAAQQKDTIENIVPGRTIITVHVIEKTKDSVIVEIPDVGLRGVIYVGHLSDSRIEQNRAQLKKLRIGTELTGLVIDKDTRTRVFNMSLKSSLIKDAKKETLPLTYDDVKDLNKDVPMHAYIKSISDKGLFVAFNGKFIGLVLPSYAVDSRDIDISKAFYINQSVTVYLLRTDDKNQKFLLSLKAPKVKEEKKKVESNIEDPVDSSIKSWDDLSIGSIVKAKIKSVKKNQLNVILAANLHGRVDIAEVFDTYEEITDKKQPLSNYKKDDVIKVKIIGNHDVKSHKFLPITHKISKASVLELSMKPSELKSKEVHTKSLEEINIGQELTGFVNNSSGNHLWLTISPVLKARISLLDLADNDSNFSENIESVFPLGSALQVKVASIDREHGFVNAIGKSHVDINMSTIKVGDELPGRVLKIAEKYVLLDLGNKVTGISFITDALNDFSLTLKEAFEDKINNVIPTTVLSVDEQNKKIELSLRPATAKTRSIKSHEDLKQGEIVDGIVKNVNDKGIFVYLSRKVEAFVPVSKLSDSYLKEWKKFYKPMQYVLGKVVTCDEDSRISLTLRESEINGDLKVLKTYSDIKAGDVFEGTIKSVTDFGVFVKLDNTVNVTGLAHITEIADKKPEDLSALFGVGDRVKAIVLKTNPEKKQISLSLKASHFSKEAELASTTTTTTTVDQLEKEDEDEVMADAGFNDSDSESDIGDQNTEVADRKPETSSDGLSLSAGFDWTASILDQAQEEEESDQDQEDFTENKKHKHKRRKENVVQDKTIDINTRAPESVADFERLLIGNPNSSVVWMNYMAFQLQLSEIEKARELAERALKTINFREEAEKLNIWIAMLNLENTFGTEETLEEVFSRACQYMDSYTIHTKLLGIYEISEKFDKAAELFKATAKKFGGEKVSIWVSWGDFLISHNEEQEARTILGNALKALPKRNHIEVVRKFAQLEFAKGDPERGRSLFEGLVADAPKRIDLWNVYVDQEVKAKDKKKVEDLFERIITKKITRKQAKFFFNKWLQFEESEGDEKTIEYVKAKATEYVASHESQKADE
binder,measurement,setting,value
B1,binding result,[1],binds
B2,binding result,[2],binds
B3,binding result,[3],binds
B4,binding result,[4],binds
